According to US20250154215A1, “PHARMACEUTICAL COMPOSITION FOR TREATING COLITIS OR COLORECTAL CANCER COMPRISING COLON-TARGETED S100A8/A9-DERIVED SPECIFIC PEPTIDE” (Industry-University Cooperation Foundation Hanyang …, priority 2023, published 2025):
One block for each molecule: values may come before it. No end group written: not given here.

Experiments:
[1] = system: OxaR CRC cells (HT29, HCT116 and SW480); assay: WST-8-based cell viability assay in parental and drug-resistant CRC cell lines; conditions: HT29, HCT116, SW480 OxaR; 24 hours
Description: To establish a CRC cell model resistant to oxaliplatin, doxorubicin, or 5-FU, HT29, HT116, and SW480 cells were exposed to progressively increasing concentrations of oxaliplatin, doxorubicin, or 5-FU. The established oxaliplatin, doxorubicin, and 5-FU resistant cells were named OxaR, DoxR, and 5-FuR cells, respectively.
To confirm the inhibitory effect of rCT-S100A8/A9 on oxaliplatin resistance, the present inventors performed a water-soluble tetrazolium-8 (WST-8)-based cell viability assay using parental cells of three CRC cell lines, HT29, HCT-116 and SW480, and their corresponding oxaliplatin-resistant (OxaR) cell lines. OxaR CRC cells (HT29, HCT116 and SW480) were established by long-term exposure of CRC cells to oxaliplatin as described in Example 1.

[2] = The results of in vitro plasma stability, microsomal stability, CYP inhibition and PK profile of S100A8/A9 peptides and rCT-S100A8/A9 proteins; conditions: mouse, plasma, ip, 1 mg/kg
Experimental: Table printed on a drawing sheet, Fig. 5B
Title: The results of in vitro plasma stability, microsomal stability, CYP inhibition and PK profile of S100A8/A9 peptides and rCT-S100A8/A9 proteins
The patent's description of the figure: FIGS. 5A and 5B show the drug-like properties of rCT-S100A8/A9. […] Bacteria-purified 6×His-rCT-S100A8/9, rVehicle or rCT was analyzed by Coomassie staining or IB using αHis (bottom, left). BMDMs were incubated with rVehicle, rCT, or rCT-S100A8/9 for the indicated times and at the indicated concentrations, and then cell viability was measured by MTT assay (bottom, right). […] HLM, human liver microsomes; CYP, cytochrome P450. aTmax, arrival time; AUClast, total area under the plasma concentration-time curve from time 0 to the time of the last measurement; Cmax, maximum plasma concentration;
First reader's note: All values were measured after ip dosing of 1 mg/kg in mice (n = 5); the footnote for the raised a is not printed on the sheet, and the title stands once above both tables.

[3] = biological target: T1, endogenous TLR4 of mouse BMDMs and mouse colon (mouse, UniProt Q9QUK6 26-835); assay: co-IP from mouse colon lysates (IP αTLR4, IB αS100A8), FIG. 1D
T1 construct: whole, on cells; Endogenous protein, immunoprecipitated with αTLR4 from BMDM or colon lysates; also called toll-like receptor 4
T1 sequence (looked up): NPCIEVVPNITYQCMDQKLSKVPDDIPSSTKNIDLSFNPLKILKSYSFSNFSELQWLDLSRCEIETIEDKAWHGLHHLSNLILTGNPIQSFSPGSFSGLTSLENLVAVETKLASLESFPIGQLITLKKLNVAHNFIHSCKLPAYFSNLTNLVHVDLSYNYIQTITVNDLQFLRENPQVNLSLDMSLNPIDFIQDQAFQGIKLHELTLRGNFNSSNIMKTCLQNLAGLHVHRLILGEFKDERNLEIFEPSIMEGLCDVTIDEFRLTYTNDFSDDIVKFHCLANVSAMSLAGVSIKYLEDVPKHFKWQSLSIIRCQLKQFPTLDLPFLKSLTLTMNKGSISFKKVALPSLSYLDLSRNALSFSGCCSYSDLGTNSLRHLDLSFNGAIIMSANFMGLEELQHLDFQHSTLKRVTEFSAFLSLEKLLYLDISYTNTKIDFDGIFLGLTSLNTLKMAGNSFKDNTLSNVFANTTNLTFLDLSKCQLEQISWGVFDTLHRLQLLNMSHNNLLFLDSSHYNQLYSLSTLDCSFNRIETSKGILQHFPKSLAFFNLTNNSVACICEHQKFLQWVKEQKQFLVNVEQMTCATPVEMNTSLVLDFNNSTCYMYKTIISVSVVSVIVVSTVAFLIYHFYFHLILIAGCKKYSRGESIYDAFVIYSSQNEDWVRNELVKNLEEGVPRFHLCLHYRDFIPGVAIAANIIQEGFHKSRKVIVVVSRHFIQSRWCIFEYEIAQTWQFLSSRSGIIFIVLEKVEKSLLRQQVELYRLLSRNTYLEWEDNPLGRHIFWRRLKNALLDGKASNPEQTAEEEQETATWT
Experimental: (§1) The 293T cells were used for immunoprecipitation (IP) including αMyc, and then for immunoblotting (IB) including αHA or αHis. […] Bone marrow-derived macrophages (BMDMs) were incubated with rHA-S100A8 or rHis-S100A9 (5 μg/ml) for 10 minutes. The BMDMs were subjected to IP using αTLR4 (FIG. 1A, right) or αRAGE (FIG. 1B, right), and then subjected to IB using αHA, αHis, αTLR4, or αRAGE. The WCLs were used for IB including αHA, αHis, αTLR4, αRAGE, or αActin. In FIG. 1C, on the left, relative expression of S100A8 or S100A9 in colons of normal, acute colitis, chronic colitis, and colorectal cancer mice was determined, and biological replicates (n=10) were used for each condition. On the right, IB was performed on sera from normal, acute colitis, chronic colitis, and colorectal cancer mice using αS100A8 or αS100A9. Coomassie blue (CB)-stained gels show consistent loading of serum proteins. Data from 3 out of 10 samples is shown. […] The WCLs were used for IB including αS100A8, αS100A9, αTLR4, αRAGE, or αActin. Data is representative of seven independent experiments with similar results (FIGS. 1A-1D);
(§2) 293T, BMDMs, and THP-1 cells were treated as indicated and processed for analysis by GST pulldown, Western blotting, and co-IP analysis. For GST pulldown, 293T cells were harvested and lysed in an NP-40 buffer including a complete protease inhibitor cocktail (Roche, Basel, Switzerland). […]

[4] = biological target: T2, endogenous RAGE of mouse BMDMs and mouse colon (mouse, UniProt Q62151 23-402); assay: co-IP from colon lysates of acute colitis, chronic colitis and CRC mice (IP αRAGE, IB αS100A8), FIG. 1D
T2 construct: whole, on cells; Endogenous protein, immunoprecipitated with αRAGE from BMDM or colon lysates; also called receptor for advanced glycation end products
Experimental: as §1, §2

[5] = biological target: T2, endogenous RAGE of mouse BMDMs and …; assay: co-IP in BMDMs incubated with recombinant protein at 5 µg/ml (IP αRAGE, IB αHA), FIG. 1B
Experimental: as §1, §2

[6] = biological target: T1, endogenous TLR4 of mouse BMDMs and …; assay: co-IP in BMDMs incubated with recombinant protein at 5 µg/ml (IP αTLR4, IB αHA), FIG. 1A
Experimental: as §1, §2

[7] = biological target: T2, endogenous RAGE of mouse BMDMs and …; assay: co-IP in BMDMs incubated with recombinant protein at 5 µg/ml (IP αRAGE, IB αHis), FIG. 1B
Experimental: as §1, §2

[8] = biological target: T1, endogenous TLR4 of mouse BMDMs and …; assay: co-IP in BMDMs incubated with recombinant protein at 5 µg/ml (IP αTLR4, IB αHis), FIG. 1A
Experimental: as §1, §2

TLR4 or RAGE = assay: Co-IP of recombinant S100A8 or S100A9 with endogenous TLR4 or RAGE in BMDMs; assay type: binding, mouse; conditions: 5 μg/ml, 10 minutes
Experimental: 293T, BMDMs, and THP-1 cells were treated as indicated and processed for analysis by GST pulldown, Western blotting, and co-IP analysis. For GST pulldown, 293T cells were harvested and lysed in an NP-40 buffer including a complete protease inhibitor cocktail (Roche, Basel, Switzerland). After centrifugation, the supernatant was pre-cleared using protein A/G beads for two hours at 4° C. The pre-cleared lysates were mixed with a 50% slurry of glutathione-conjugated Sepharose beads (Amersham Biosciences, Amersham, UK), and binding reactions were performed for four hours at 4° C. by incubating the lysates at 4° C. The precipitate was extensively washed with a lysis buffer. Proteins bound to the glutathione beads were eluted by boiling for five minutes in a sodium dodecyl sulfate (SDS) loading buffer. For IP, cells were harvested and lysed in an NP-40 buffer supplemented with a complete protease inhibitor cocktail (Roche, Switzerland). […] For immunoblotting (IB), polypeptides were analyzed by SDS-polyacrylamide gel electrophoresis and transferred to polyvinylidene difluoride (PVDF) membranes (Bio-Rad, Hercules, CA, USA). […] Antibody binding was visualized by chemiluminescence (ECL; Millipore, Burlington, MA, USA) and detected using a Vilber chemiluminescence analyzer (Fusion SL 3; Vilber Lourmat). […]

[9] = biological target: T2, endogenous RAGE of mouse BMDMs and …; assay: co-IP from colon lysates of acute colitis, chronic colitis and CRC mice (IP αRAGE, IB αS100A9), FIG. 1D
Experimental: as §1, §2

[10] = biological target: T1, endogenous TLR4 of mouse BMDMs and …; assay: co-IP from colon lysates of acute colitis, chronic colitis and CRC mice (IP αTLR4, IB αS100A9), FIG. 1D
Experimental: as §1, §2

T2 sequence (Q62151 23-402): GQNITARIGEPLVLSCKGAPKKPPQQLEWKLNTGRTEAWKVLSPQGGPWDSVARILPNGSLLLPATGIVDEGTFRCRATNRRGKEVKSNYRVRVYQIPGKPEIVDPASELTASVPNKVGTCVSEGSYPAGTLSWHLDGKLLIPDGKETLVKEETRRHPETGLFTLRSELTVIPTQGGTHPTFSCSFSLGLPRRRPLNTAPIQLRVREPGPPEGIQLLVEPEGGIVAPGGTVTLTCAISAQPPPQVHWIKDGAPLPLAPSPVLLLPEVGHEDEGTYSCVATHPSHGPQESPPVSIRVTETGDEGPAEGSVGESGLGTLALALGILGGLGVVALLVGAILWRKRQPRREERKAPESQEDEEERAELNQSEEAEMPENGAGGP

Molecule: O=C1[O][Pt]2([NH][C@@H]3CCCC[C@H]3[NH]2)[O]C1=O [oxaliplatin, reference compound]
cell viability of OxaR CRC cells [1]: significant resistance to oxaliplatin treatment

Cmax ([2]; read-out: PK parameters (ip, 1 mg/kg, mice (n = 5))^a | Cmax): 102 ± 41.2 ng/mL
half-life ([2]; read-out: PK parameters (ip, 1 mg/kg, mice (n = 5))^a | T1/2 (converted)): 25.2 ± 30.6 min
Molecule: FLVIKGGAHKSHKGGITIITFGGGHHGG [S100A8/A9]

binding result [3]: binds
binding result [4]: binds
B1: endogenous mouse S100A8 (ligand, UniProt P27005 2-89, looked up)
chain: PSELEKALSNLIDVYHNYSNIQGNHHALYKNDFKKMVTTECPQFVQNINIENLFRELDINSDNAINFEEFLAMVIKVGVASHKDSHKE
notes: Endogenous protein detected with αS100A8 in co-immunoprecipitates

binding result [5]: binds
binding result [6]: binds
B2: rHA-mS100A8 (ligand)
chain: B1 chain
notes: Recombinant protein added to BMDMs at 5 µg/ml; also called rHA-S100A8; rS100A8; not shown: HA tag

binding result [7]: binds
binding result [8]: binds
B3: rHis-mS100A9 (ligand)
chain: ANKAPSQMERSITTIIDTFHQYSRKEGHPDTLSKKEFRQMVEAQLATFMKKEKRNEALINDIMEDLDTNQDNQLSFEECMMLMAKLIFACHEKLHENNPRGHGHSHGKGCGK
notes: Recombinant protein added to BMDMs at 5 µg/ml; also called rHis-S100A9; rS100A9; not shown: His tag

B4: rHis-mS100A9: recombinant His-tagged S100A9 protein (protein)
chain: B3 chain
modifications: left off: small tags and cut ends
notes: recombinant His-tagged S100A9 protein
binding to PRRs (TLR4 and RAGE) (TLR4 or RAGE): stronger binding to PRRs (TLR4 and RAGE) than rHA-mS100A8

binding result [9]: binds
binding result [10]: binds
B5: endogenous mouse S100A9 (ligand, UniProt P31725 2-113, looked up)
chain: B3 chain
notes: Endogenous protein detected with αS100A9 in co-immunoprecipitates
